From patent publication US20170137511A1 (CALYPSO BIOTECH, published 2017)

How the values were obtained:
[1] = molecular target: T1, recombinant human IL-15 (R&D systems cat. no. 247-IL) (human, UniProt P40933 49-162); assay: cell-based or functional assay
[2] = molecular target: T2, recombinant Macaque Monkey IL-15 (MyBiosource cat. no. MBS948894) (Rhesus macaque / Cynomolgus monkey, UniProt P40221 49-162 (Chlorocebus aethiops entry)); assay: ELISA, plate-bound Macaque Monkey IL-15; printed as BC50 (half-maximal binding concentration)
T2 construct: Produced in yeast; also called Rhesus macaque IL-15; recombinant monkey IL-15; not shown: additional N-terminal His tag
T2 sequence (P40221 49-162): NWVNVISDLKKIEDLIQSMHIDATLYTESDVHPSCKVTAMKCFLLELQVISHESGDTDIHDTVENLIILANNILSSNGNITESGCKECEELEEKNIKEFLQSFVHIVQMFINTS
Description: (§1) Maxisorp plates were coated with recombinant human IL-15 (Prospec cat no. CYT230) or Rhesus macaque IL-15 (MyBiosource cat. no. MBS948894) at 100 ng/well in carbonate coating buffer for 2 hours at 37° C. Since published sequences of Rhesus macaque and Cynomolgus monkey IL-15 are identical, such recombinant IL-15 protein was referred to as Macaque Monkey IL-15. Tested human IL-15 recombinant protein has a sequence identical to that provided in SEQ ID NO: 1 but with an additional methionine at the N-terminal position as usually done for expressing recombinant proteins in E. Coli. Tested recombinant Macaque Monkey IL-15 was produced in yeast and has a sequence identical to that provided in SEQ ID NO: 4 but with an additional N-terminal His tag.
(§2) The plate was then blocked with 2% normal goat serum for 30 min at 37° C. and washed 6 times with PBS-Tween (0.05% Tween-20 in PBS, v/v). Test antibodies were added to the plate in triplicate at various dilutions in PBS-Tween and the plate was incubated with gentle rocking at room temperature for 2 hours. The plate was then washed 6 times with PBS-Tween and an appropriate dilution of goat anti-human IgG antibody (Millipore cat. no. AP309P) conjugated to horseradish peroxidase (HRP) was added to the plate and left rocking at room temperature for 1 hour. The plate was then washed 6 times with PBS-Tween and incubated with TMB substrate. The reaction was stopped by the addition of 1M H₂SO₄ and read at 450 nm. Dose response curves of absorbance versus concentration were plotted and analyzed to determine half-maximal binding concentrations (BC₅₀) using the Graphpad Prism software. BC₅₀ values expressed as molarity were extrapolated from concentration in ng/ml using a 150 kDa molecular weight value for all antibodies.

[3] = molecular target: T1, recombinant human IL-15 (R&D systems …); assay: cell-based or functional assay; remark: listed apart in the source
[4] = molecular target: T3, recombinant human IL-15 (Prospec cat no. CYT230) (human, UniProt P40933 49-162); assay: ELISA, plate-bound human IL-15; printed as BC50 (half-maximal binding concentration)
T3 sequence (P40933 other isoform, or with tags, fused parts or gaps): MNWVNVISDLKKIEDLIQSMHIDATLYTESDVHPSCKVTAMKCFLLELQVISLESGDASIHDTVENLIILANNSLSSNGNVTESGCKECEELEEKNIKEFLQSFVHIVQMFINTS
Description: as §1, §2

[5] = molecular target: T3, recombinant human IL-15 (Prospec cat …); assay: ELISA, plate-bound recombinant human IL-15 (100 ng/well), HRP goat anti-human IgG, absorbance at 450 nm
Description: as §1
The plate was then blocked with 2% normal goat serum for 30 min at 37° C. and washed 6 times with PBS-Tween (0.05% Tween-20 in PBS, v/v). […] The reaction was stopped by the addition of 1M H₂SO₄ and read at 450 nm. Dose response curves of absorbance versus concentration were plotted and analyzed to determine half-maximal binding concentrations (BC₅₀) using the Graphpad Prism software. BC₅₀ values expressed as molarity were extrapolated from concentration in ng/ml using a 150 kDa molecular weight value for all antibodies.

[6] = molecular target: T3, recombinant human IL-15 (Prospec cat …); assay: SPR (Biacore 3000), human IL-15 amine-coupled to the chip, antibody injected, 1:1 Langmuir fit
Description: Human IL-15 (Prospec cat no. CYT230) was immobilized onto a CMS chip (GE Healthcare) using standard amine coupling, and antibodies injected at various concentrations in 120 μl phosphate buffer saline with a flow rate of […]. Binding kinetics were analyzed on a Biacore 3000 apparatus (GE Healthcare) with a 300 seconds dissociation period. Reference signal and 0 nM antibody concentration signal were substracted and data fitted using a 1:1 (Langmuir) binding model.

[7] = molecular target: T4, human IL-15 (preparation not stated) (human, UniProt P40933 49-162, limits assumed); assay: ELISA
T4 construct: also called recombinant IL-15; recombinant human IL-15
T4 sequence (P40933 49-162 limits assumed): as the sequence (P40221 49-162) above, with H52L, T57A, D58S, I73S, I80V counted along it

[8] = molecular target: T4, human IL-15 (preparation not stated); assay: ELISA; the weaker binders of the comparison
[9] = molecular target: T2, recombinant Macaque Monkey IL-15 …; assay: cell-based or functional assay
[10] = molecular target: T5, recombinant rat IL-15 (Sigma cat. no. SRP4172) (rat, UniProt P97604 49-162); assay: ELISA, plate-bound recombinant rat IL-15 (100 ng/well), HRP goat anti-human IgG, absorbance at 450 nm
T5 sequence: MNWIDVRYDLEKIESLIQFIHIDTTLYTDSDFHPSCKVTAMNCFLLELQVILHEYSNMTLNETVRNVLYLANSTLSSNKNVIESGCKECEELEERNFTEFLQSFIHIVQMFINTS
Description: (§3) Maxisorp plates were coated with recombinant mouse IL-15 (R&D Systems cat. no. 447-ML) or rat IL-15 (Sigma cat. no. SRP4172) at 100 ng/well in carbonate coating buffer for 2 hours at 37° C. Tested IL-15 recombinant proteins have a sequence identical to that provided in SEQ ID NO: 2 (mouse IL-15) and SEQ ID NO: 3 (rat IL-15) but with an additional methionine at the N-terminal position as usually done for expressing recombinant proteins in E. Coli.
(§4) The plate was then blocked with 2% normal goat serum for 30 min at 37° C. and washed 6 times with PBS-Tween (0.05% Tween-20 in PBS, v/v). Test antibodies were added to the plate in triplicate at various dilutions in PBS-Tween and the plate was incubated with gentle rocking at room temperature for 2 hours. As positive controls, rabbit-anti-mouse IL-15 (Acris cat. no. AP01124PU-S) or rabbit anti-rat IL-15 (Biovision cat. no. 5172) antibodies were tested at the same concentrations. The plate was then washed 6 times with PBS-Tween and an appropriate dilution of HRP-conjugated goat anti-human IgG antibody (Millipore cat. no. AP309P) for humanized antibodies, or goat-anti-rabbit IgG antibody (Sigma cat. no. A 4416) for the positive controls was added and the plate was left rocking at room temperature for 1 hour. The plate was then washed 6 times with PBS-Tween and incubated with TMB substrate. The reaction was stopped by the addition of 1M H₂SO₄ and read at 450 nm. Dose response curves of absorbance versus concentration were plotted using the Graphpad Prism software.

[11] = molecular target: T6, recombinant mouse IL-15 (R&D Systems cat. no. 447-ML) (mouse, UniProt P48346 49-162); assay: ELISA, plate-bound recombinant mouse IL-15 (100 ng/well), HRP goat anti-human IgG, absorbance at 450 nm
T6 sequence: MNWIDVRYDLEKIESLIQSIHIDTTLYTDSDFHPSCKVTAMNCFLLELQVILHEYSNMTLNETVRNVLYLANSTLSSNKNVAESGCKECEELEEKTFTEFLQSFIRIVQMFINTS
Description: as §3, §4

[12] = molecular target: recombinant human IL-2 (R&D Systems cat. no. 202-IL-010) (human, UniProt P60568 21-153); assay: ELISA, plate-bound recombinant human IL-2 (100 ng/well), HRP goat anti-human IgG, absorbance at 450 nm
Sequence of recombinant human IL-2 (R&D Systems cat. no. 202-IL-010) (P60568 21-153 limits assumed): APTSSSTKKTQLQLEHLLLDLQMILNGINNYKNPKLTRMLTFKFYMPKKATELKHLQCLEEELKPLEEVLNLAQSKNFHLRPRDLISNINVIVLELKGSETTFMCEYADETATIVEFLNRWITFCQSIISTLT
Description: Maxisorp plates were coated with recombinant human IL-2 (R&D Systems cat. no. 202-IL-010) of SEQ ID NO: 38 at 100 ng/well in carbonate coating buffer for 2 hours at 37° C. The plate was then blocked with 2% normal goat serum for 30 min at 37° C. and washed 4 times with PBS-Tween (0.05% Tween-20 in PBS, v/v). Test antibodies or positive control biotinylated antibody (anti-IL-2 Novus Bio cat. no. NBP1-43491) were added to the plate in duplicate at 5 μg/ml in PBS-Tween and the plate was incubated with gentle rocking at room temperature for 2 hours. The plate was then washed 4 times with PBS-Tween and an appropriate dilution of goat anti-human IgG antibody (Millipore cat. no. AP309P) conjugated to horseradish peroxidase (HRP) for test antibodies, or streptavidin-HRP for positive control antibody, was added to the plate and left rocking at room temperature for 1 hour. The plate was then washed 4 times with PBS-Tween and incubated with TMB (3,3′,5,5′-tetramethylbenzidine) substrate. The reaction was stopped by the addition of 1 M H₂SO₄ and read at 450 nm.

T1 sequence (P40933 49-162 limits assumed): as the sequence (P40221 49-162) above, with H52L, T57A, D58S, I73S, I80V counted along it

B1: 146B7 (comparative antibody 2) (antibody, V domains shown)
VH: EVQLVQSGAEVKKPGESLKISCKVSGYFFTTYWIGWVRQMPGKGLEYMGIIYPGDSDTRYSPSFQGQVTISADKSISTAYLQWSSLKASDTAMYYCARGGNWNCFDYWGQGTLVTVSS
VL: EIVLTQSPGTLSLSPGERATLSCRASQSVSSSYLAWYQQKPGQAPRLLIYGASRRATGIPDRFSGSGSGTDFTLTISRLEPEDFAVYYCQRYGSSHTFGQGTKLEIS
notes: Fully human antibody of the prior art (WO 03/017935), 'produced in the same expression system'; also called AMG 714; HuMaxIL-15
IC50 in Kit 225 cells (nM), Human IL-15 [1]: 3.7 nM | IC50 in M-07e cells (nM), Human IL-15 [1]: 3.2 nM | EC50 [2]: 0.733 nM | IC50 in M07e cells for IL-15 trans presentation [3]: 0.63 nM | EC50 [4]: 8.41 nM | EC50 (read off the curve) [5]: ~0.8 µg/mL | Kd [6]: 0.0367 nM | koff [6]: 5.26e-05 s⁻¹ | kon [6]: 1.44e+06 M⁻¹ s⁻¹

B2: cVH1:cVK1 (antibody, human IgG1, kappa, V domains shown)
VH: EVRLMASGGGLVKPGGSLKLSCAASEFTFSNYAMSWVRQTPEKRLEWVATISRGGDYTYYPDSVKGRFTISRDNAKNTLYLQMSSLRSEDTALYYCARRVSMITGGWAMDYWGQGTSVTVSS
VL: DVLMTQTPLSLPVSLGDQASISCRSSQSIVDITGNTYLEWYLQKPGQSPKLLIYKVFNRFSGVPDRFSGSGSGTDFTLKISRVEAEDLGLYYCFQDSFVPYTFGGGTKLEIKR
notes: Mouse B-E29 variable regions on human IgG1 (G1m3) / kappa (Km3); also called chimeric B-E29
binding result [7]: binds

B3: hVH1:hVK2 (antibody, human IgG1, kappa, V domains shown)
VH: EVRLMASGGGLVQPGGSLRLSCAASEFTFSNYAMSWVRQAPGKGLEWVATISRGGDYTYYPDSVKGRFTISRDNSKNTLYLQMNSLRAEDTAVYYCARRVSMITGGWAMDYWGQGTLVTVSS
VL: EVVMTQSPATLSLSPGERATLSCRSSQSIVDITGNTYLEWYQQKPGQAPRLLIYKVFNRFSGIPARFSGSGSGTDFTLTISSLEPEDFAVYYCFQDSFVPYTFGQGTKLEIKR
notes: Human IgG1 (G1m3) / kappa (Km3)
binding result [8]: binds

B4: hVH1:cVK1 (antibody, human IgG1, kappa, V domains shown)
VH: EVRLMASGGGLVQPGGSLRLSCAASEFTFSNYAMSWVRQAPGKGLEWVATISRGGDYTYYPDSVKGRFTISRDNSKNTLYLQMNSLRAEDTAVYYCARRVSMITGGWAMDYWGQGTLVTVSS
VL: DVLMTQTPLSLPVSLGDQASISCRSSQSIVDITGNTYLEWYLQKPGQSPKLLIYKVFNRFSGVPDRFSGSGSGTDFTLKISRVEAEDLGLYYCFQDSFVPYTFGGGTKLEIKR
notes: as for B3
binding result [7]: binds

B5: cVH1:hVK1 (antibody, human IgG1, kappa, V domains shown)
VH: EVRLMASGGGLVKPGGSLKLSCAASEFTFSNYAMSWVRQTPEKRLEWVATISRGGDYTYYPDSVKGRFTISRDNAKNTLYLQMSSLRSEDTALYYCARRVSMITGGWAMDYWGQGTSVTVSS
VL: DVVMTQSPLSLPVTLGQPASISCRSSQSIVDITGNTYLEWYQQRPGQSPRLLIYKVFNRFSGVPDRFSGSGSGTDFTLKISRVEAEDVGVYYCFQDSFVPYTFGQGTKLEIKR
notes: as for B3
binding result [7]: binds

B6: huB-E29-1 (antibody, human IgG1, kappa)
heavy: not shown
light: DVVMTQSPLSLPVTLGQPASISCRSSQSIVDITGNTYLEWYQQRPGQSPRLLIYKVFNRFSGVPDRFSGSGSGTDFTLKISRVEAEDVGVYYCFQDSFVPYTFGQGTKLEIKRTVAAPSVFIFPPSDEQLKSGTASVVCLLNNFYPREAKVQWKVDNALQSGNSQESVTEQDSKDSTYSLSSTLTLSKADYEKHKVYACEVTHQGLSSPVTKSFNRGEC
notes: Humanized B-E29 variant; human IgG1 (G1m3) / kappa (Km3), produced in CHO cells; also called huVH1/huVL1; hVH1:hVK1
EC50 [2]: 0.487 nM | EC50 [4]: 1.33 nM | EC50 (read off the curve) [5]: ~0.2 µg/mL

B7: huB-E29-10 (antibody, human IgG1, kappa, V domains shown)
VH: EVRLMASGGGLVQPGGSLRLSCAASEFTFSNYAMSWVRQAPGKGLEWVATISRGGDYTYYPDTVKGRFTISRDNSKNTLYLQMNSLRAEDTAVYYCARRVSMITGGYAMDYWGQGTLVTVSS
VL: DVVMTQSPLSLPVTLGQPASISCRSSQSIVDITGNTYLEWYQQRPGQSPRLLIYKVFNRFSGVPDRFSGSGSGTDFTLKISRVEAEDVGVYYCFQDSFVPYTFGQGTKLEIKR
notes: Humanized B-E29 variant; human IgG1 (G1m3) / kappa (Km3), produced in CHO cells; also called huVH8/huVL1
IC50 in Kit 225 cells (nM), Human IL-15 [1]: 17 nM | IC50 in M-07e cells (nM), Human IL-15 [1]: 4.2 nM | IC50 in Kit 225 cells (nM), Macaque Monkey IL-15 [9]: 17.5 nM | IC50 in M-07e cells (nM), Macaque Monkey IL-15 [9]: 41.3 nM | binding result [10]: no binding (tested: log 3.7 (about 5000 ng/mL)) | binding result [11]: no binding (tested: log 3.7 (about 5000 ng/mL)) | EC50 [2]: 0.353 nM | IC50 in M07e cells for IL-15 trans presentation [3]: 0.53 nM | EC50 [4]: 0.507 nM | Kd [6]: 0.295 nM | koff [6]: 0.000423 s⁻¹ | kon [6]: 1.43e+06 M⁻¹ s⁻¹ | binding result [12]: no binding (tested: 5 µg/ml)

B8: huB-E29-4 (antibody, human IgG1, kappa, V domains shown)
VH: EVRLMASGGGLVQPGGSLRLSCAASEFTFSNYAMSWVRQAPGKGLEWVATISRGGDYTYYPDSVKGRFTISRDNSKNTLYLQMNSLRAEDTAVYYCARRVSMITGGWAMDYWGQGTLVTVSS
VL: DVVMTQSPLSLPVTLGQPASISCRSSQSIVDITGNTYLEWFQQRPGQSPRLLIYKVFNRFSGVPDRFSGSGSGTDFTLKISRVEAEDVGVYYCFQDSFVPYTFGQGTKLEIKR
notes: Humanized B-E29 variant; human IgG1 (G1m3) / kappa (Km3), produced in CHO cells; also called huVH1/huVL2
EC50 [2]: 0.5 nM | EC50 [4]: 1.01 nM | binding result [12]: no binding (tested: 5 µg/ml)
